Measurements published in paper PMC3467252.

Key:
Assay in all cases: SPR; surface plasmon resonance; who was immobilised is not told in what was shown; mean +/- 95% CI, n=3
BAFFR-Fc = BAFFR-Fc (UniProt Q96RJ3)
BCMA-Fc = BCMA-Fc (UniProt Q02223)
[1] = biological target: TACI-Fc (extracellular domain of the BLyS receptor TACI fused to the Fc region of human IgG1) (UniProt O14836)
Sequence of UniProt O14836 (O14836 1-165): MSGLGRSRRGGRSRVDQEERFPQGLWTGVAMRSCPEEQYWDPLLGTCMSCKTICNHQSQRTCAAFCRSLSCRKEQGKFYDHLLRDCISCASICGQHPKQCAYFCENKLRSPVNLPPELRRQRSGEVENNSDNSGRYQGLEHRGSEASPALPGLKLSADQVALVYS

Sequence of UniProt Q96RJ3 (Q96RJ3 1-78): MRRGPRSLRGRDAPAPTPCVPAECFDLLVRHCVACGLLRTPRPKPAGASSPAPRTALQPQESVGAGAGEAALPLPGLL
Sequence of UniProt Q02223 (Q02223 1-54): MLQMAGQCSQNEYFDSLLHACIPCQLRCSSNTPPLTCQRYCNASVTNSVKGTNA

With BLyS-gelonin fusion toxin the Kd (BAFFR-Fc) was 2.6 nM, the Kd (BCMA-Fc) was 6.2 nM and the Kd [1] was 0.8 nM.
